Measurements reported in patent publication US20220298244A1 (BEIJING MABWORKS BIOTECH, published 2022).
Residue numbers refer to the chain shown, from its start. In names and notes the source's numbering stands.

B1: humanized antibody 3C2-VH6VL5 (antibody, human IgG1, kappa, N297A, V domains shown)
VH: QVQLVQSGAEVKKPGASVKVSCKASGYTFTDYHVNWVRQAPGQGLEWIGWIFPGSGRTFYTDKFKGRVTMTVDTSTSTVYMELSSLRSEDTAVYYCATDYGTSGYGLVYWGQGTTVTVSS
VL: DIQMTQSPSSLSASVGDRVTITCKASDRINNWLAWYQQKPGKAPKLLISGATSLETGVPSRFSGSGSGTDFTLTISSLQPEDIATYYCQQYWNIPFTFGQGTKVEIKR
notes: Human IgG1(N297A)/kappa
B2: humanized antibody 3C2-VH4VL4 (antibody, human IgG1, kappa, N297A, V domains shown)
VH: B1 VH with T28S, R38K, A40R, M70L, R87T, Y95F
VL: B1 VL with T22S, K42N, K45R, F71Y, L73F, T85V
notes: Human IgG1(N297A)/kappa
B3: humanized antibody 56E5-VH5VL4 (antibody, human IgG1, kappa, N297A, V domains shown)
VH: QVQLQESGPGLVKPSQTLSLTCTVSGGSITSDYWNWIRQHPGNKLEYMGYISYTGSTYYNPSLKSRISITRDTSKNQFSLKLSSVTTADTAVYYCARYRDWDVRAMDYWGQGTTVTVSS
VL: DIVMTQSPDSLAVSLGEKVTMNCKSSQSLLISGNQKNFLTWYQQKPGQPPKLLIYWASTRESGVPDRFSGSGSGTDFTLTISSLQAEDLAVYYCQNDFGFPFTFGQGTKVEIKR
notes: Human IgG1(N297A)/kappa
B4: mouse anti-PD-L1 monoclonal antibody 3C2 (antibody, mouse IgG1, V domains shown)
VH: QVQLNQSGPELMKAGTSVKISCKASGYSFTDYHVNWVKQRPGQGLEWIGWIFPGSGRTFYTDKFKGKATLTVDLSFTTAYIMLNSLTSEDSAVYFCATDYGTSGYGLVYWGQGTSVTVSS
VL: DIQMTQSSSYLSVSLGGRVTISCKASDRINNWLAWYQQKPGNAPRLLISGATSLETGVPSRFSGSGSGKDYTLSITSLQTEDVAVYYCQQYWNIPFTFGSGTKLEIK
notes: Purified from hybridoma; also called Mouse 3C2
B5: mouse anti-PD-L1 monoclonal antibody 56E5 (antibody, mouse IgG1, V domains shown)
VH: EVQLQESGPGLAKPSQTLSLTCSVTGYSITSDYWNWIRKFPGNKLEYMGYISYTGSTYYNPSLKSRISITRDTSKNQYYLQLNSVTTEDTATYYCARYRDWDVRAMDYWGQGTSVTVSS
VL: DIVMTQSPSSLTVTAGEKVTMNCKSSQSLLISGNQKNFLTWYQQKPGQPPKLLIYWASTRESGVPDRFTGSGSGTDFTLTISSVQAEDLAVYYCQNDFGFPFTFGSGTKLEIK
notes: Purified from hybridoma; also called Mouse 56E5
B6: 3C2VH3VL3 (antibody, human IgG1, kappa, N297A, V domains shown)
VH: B1 VH with R38K, A40R, M70L, R87T
VL: B1 VL with T22S, K42N, K45R, F71Y, L73F
notes: humanized 3C2 antibody
B7: 3C2VH4VL3 (antibody, human IgG1, kappa, N297A, V domains shown)
VH: B1 VH with T28S, R38K, A40R, M70L, R87T, Y95F
VL: B1 VL with T22S, K42N, K45R, F71Y, L73F
notes: humanized 3C2 antibody
B8: 3C2VH2VL3 (antibody, human IgG1, kappa, N297A, V domains shown)
VH: B1 VH with M70L, R87T
VL: B1 VL with T22S, K42N, K45R, F71Y, L73F
notes: humanized 3C2 antibody
B9: 3C2VH4VL2 (antibody, human IgG1, kappa, N297A, V domains shown)
VH: B1 VH with T28S, R38K, A40R, M70L, R87T, Y95F
VL: B1 VL with K45R, F71Y, L73F
notes: humanized 3C2 antibody
B10: 3C2VH5VL3 (antibody, human IgG1, kappa, N297A, V domains shown)
VH: B1 VH with T28S, R38K, A40R, R67K, V68A, M70L, R87T, Y95F
VL: B1 VL with T22S, K42N, K45R, F71Y, L73F
notes: humanized 3C2 antibody
B11: 3C2VH3VL2 (antibody, human IgG1, kappa, N297A, V domains shown)
VH: B1 VH with R38K, A40R, M70L, R87T
VL: B1 VL with K45R, F71Y, L73F
notes: humanized 3C2 antibody
B12: 3C2VH5VL2 (antibody, human IgG1, kappa, N297A, V domains shown)
VH: B1 VH with T28S, R38K, A40R, R67K, V68A, M70L, R87T, Y95F
VL: B1 VL with K45R, F71Y, L73F
notes: humanized 3C2 antibody
B13: 3C2VH5VL4 (antibody, human IgG1, kappa, N297A, V domains shown)
VH: B1 VH with T28S, R38K, A40R, R67K, V68A, M70L, R87T, Y95F
VL: B1 VL with T22S, K42N, K45R, F71Y, L73F, T85V
notes: humanized 3C2 antibody
B14: 3C2VH2VL2 (antibody, human IgG1, kappa, N297A, V domains shown)
VH: B1 VH with M70L, R87T
VL: B1 VL with K45R, F71Y, L73F
notes: humanized 3C2 antibody
B15: 3C2VH3VL4 (antibody, human IgG1, kappa, N297A, V domains shown)
VH: B1 VH with R38K, A40R, M70L, R87T
VL: B1 VL with T22S, K42N, K45R, F71Y, L73F, T85V
notes: humanized 3C2 antibody
B16: 3C2VH2VL4 (antibody, human IgG1, kappa, N297A, V domains shown)
VH: B1 VH with M70L, R87T
VL: B1 VL with T22S, K42N, K45R, F71Y, L73F, T85V
notes: humanized 3C2 antibody
B17: 56E5VH2VL4 (antibody, human IgG1, kappa, N297A, V domains shown)
VH: B3 VH with N43K, K44G, I67V, S68T, R71V
VL: B3 VL
notes: humanized 56E5 antibody
B18: 56E5VH4VL4 (antibody, human IgG1, kappa, N297A, V domains shown)
VH: B3 VH with I67V, S68T
VL: B3 VL
notes: humanized 56E5 antibody
B19: 56E5VH3VL4 (antibody, human IgG1, kappa, N297A, V domains shown)
VH: B3 VH with I67V, S68T, R71V
VL: B3 VL
notes: humanized 56E5 antibody

Biological target: T1, monkey PD-L1 (ECD)-his (monkey, UniProt Q9NZQ7 19-238 (human entry))
T1 construct: Bought protein; also called Cat #:90251-C08H, Sino Biological; not shown: His tag
Assay: SPR (BIAcore 8K), monkey PD-L1 (ECD)-his coupled to CM5 chip, antibody injected, 1:1 Langmuir model
Method: (§1) These antibodies were also tested in SPR assays for their binding affinities to human and monkey PD-L1 with BIAcore™ 8K instrument (GE Life Sciences). Briefly, 100-200 response units (RU) of human PD-L1 (ECD)-his protein (Cat #:10084-H08H, Sino Biological, CN) or monkey PD-L1 (ECD)-his protein (Cat #:90251-008H, Sino Biological, CN) were coupled to CM5 biosensor chips (Cat #:BR-1005-30, GE Life Sciences, US), and the un-reacted groups were blocked with 1M ethanolamine Serially diluted antibodies at concentrations ranging from 0.3 μM to 10 μM were injected into the SPR running buffer (HBS-EP buffer, pH7.4, Cat #:BR-1006-69, GE Life Sciences, US) at 30 μL/minute. The binding affinities were calculated with the RUs of blank controls subtracted. The association rate (kₐ) and dissociation rate (kd) were calculated using the one-to-one Langmuir binding model (BIA Evaluation Software, GE Life Sciences), and the equilibrium dissociation constant KD was calculated as the kd/kₐ ratio.

T1 sequence (Q9NZQ7 other isoform, or with tags, fused parts or gaps): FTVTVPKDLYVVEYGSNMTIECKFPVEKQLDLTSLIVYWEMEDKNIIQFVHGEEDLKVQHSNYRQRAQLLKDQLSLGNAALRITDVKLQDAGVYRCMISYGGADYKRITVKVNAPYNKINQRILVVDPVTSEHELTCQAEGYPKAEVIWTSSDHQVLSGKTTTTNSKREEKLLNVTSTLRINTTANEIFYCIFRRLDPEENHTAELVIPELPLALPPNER

Kd	Binder
0.369 nM	B1
0.245 nM	B2
0.00807 nM	B3

Biological target: T2, human PD-L1 expressed on HEK293A cells (human, UniProt Q9NZQ7 19-290)
T2 construct: Full-length cDNA expressed stably; also called HEK293A/human PD-L1 cells; HEK293A/human PD-L1
Assay: FACS blocking assay: antibody titrated on HEK293A/human PD-L1 cells, then PD1-hFc (200 µg/ml) detected
Method: Briefly, 10⁵ HEK293A/human PD-L1 cells in 100 μl culture medium were seeded onto each well of 96-well plates, to which added 50 μl serially diluted anti-PD-L1 antibodies. After incubated at 4° C. for 1 hour, the plates were washed 3 times with PBST. […] After incubation at 4° C. for 1 hour, the plates were washed with PBST for 3 times, and added with PE coupled Goat Anti-human IgG (Cat #:PAI-86078, Thermofisher, US) diluted 500×. After incubation at 4° C. for 1 hour, the plates were washed with PBST for 3 times and then cell fluorescence was monitored using a FACS machine (BD).

T2 sequence (Q9NZQ7 19-290 limits assumed): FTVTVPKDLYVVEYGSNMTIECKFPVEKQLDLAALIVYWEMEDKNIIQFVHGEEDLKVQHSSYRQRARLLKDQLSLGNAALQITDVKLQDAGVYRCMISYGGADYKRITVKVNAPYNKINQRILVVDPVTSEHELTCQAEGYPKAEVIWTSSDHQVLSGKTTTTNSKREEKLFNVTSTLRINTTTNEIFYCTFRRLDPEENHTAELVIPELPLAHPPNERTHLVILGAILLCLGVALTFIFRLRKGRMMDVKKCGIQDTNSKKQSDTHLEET

EC50	Binder
0.0147 nM	B4
0.01 nM	B5

Biological target: T3, mouse PD-L1 expressed on HEK293A cells (mouse, UniProt Q9EP73 19-290)
T3 construct: Full-length cDNA expressed stably; also called HEK293A/mouse PD-L1 cells; HEK293A/mouse PD-L1
Assay: FACS on HEK293A/mouse PD-L1 cells
Method: (§2) To determine whether the anti-PD-L1 antibodies bound to human, monkey or mouse PD-L1s expressed on HEK293A cells, a cell-based binding assay was performed by FACS using the HEK293A cells stably overexpressing human, monkey and mouse PD-L1s respectively as generated in Example 1. Briefly, 10⁵ HEK293A cells in 100 μl culture medium were seeded onto each well of the 96-well plates, to which added 50 μl serially diluted anti-PD-L1 antibodies. After incubated at 4° C. for 1 hour, plates were washed 3 times with PBST. Then, APC coupled Goat Anti-Mouse IgG (Cat #:405308, BioLegend, US) diluted 500× was added to the plates. After incubation at 4° C. for 1 hour, the plates were washed with PBS for 3 times and then cell fluorescence was monitored using a FACS machine (BD).

T3 sequence (Q9EP73 19-290 limits assumed): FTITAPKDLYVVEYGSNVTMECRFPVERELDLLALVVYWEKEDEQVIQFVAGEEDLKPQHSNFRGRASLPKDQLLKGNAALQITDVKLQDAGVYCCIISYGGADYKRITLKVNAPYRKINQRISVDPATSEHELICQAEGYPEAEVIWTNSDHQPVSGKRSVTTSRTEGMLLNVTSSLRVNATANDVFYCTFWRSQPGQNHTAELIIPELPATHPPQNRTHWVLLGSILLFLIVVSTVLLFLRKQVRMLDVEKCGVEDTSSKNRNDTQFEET

binding result	Binder
no binding	B4
no binding	B5

Biological target: T4, monkey PD-L1 expressed on HEK293A cells (monkey (cynomolgus), UniProt Q9NZQ7 19-290 (human entry))
T4 construct: Full-length cDNA expressed stably; also called HEK293A/monkey PD-L1 cells; HEK293A/monkey PD-L1
Assay: FACS on HEK293A/monkey PD-L1 cells, serially diluted antibody (protocol of Example 4)

T4 sequence (Q9NZQ7 other isoform, or with tags, fused parts or gaps limits assumed): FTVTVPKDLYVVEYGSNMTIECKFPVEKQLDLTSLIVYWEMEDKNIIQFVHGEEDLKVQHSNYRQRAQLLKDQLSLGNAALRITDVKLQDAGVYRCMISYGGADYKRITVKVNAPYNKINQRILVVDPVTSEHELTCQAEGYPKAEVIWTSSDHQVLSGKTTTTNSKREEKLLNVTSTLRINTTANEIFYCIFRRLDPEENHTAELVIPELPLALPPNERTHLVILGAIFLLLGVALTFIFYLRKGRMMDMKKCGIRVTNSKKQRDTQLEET

binding result	Binder
binds	B6
binds	B7
binds	B8
binds	B1
binds	B9
binds	B10
binds	B11
binds	B12
binds	B13
binds	B14
binds	B15
binds	B16
binds	B2

Biological target: T2, human PD-L1 expressed on HEK293A cells
Assay: FACS on HEK293A/human PD-L1 cells, serially diluted antibody (protocol of Example 4)

binding result	Binder
binds	B6
binds	B7
binds	B8
binds	B9
binds	B10
binds	B11
binds	B12
binds	B13
binds	B14
binds	B15
binds	B16

Biological target: T2, human PD-L1 expressed on HEK293A cells
Assay: FACS on cells, serially diluted antibody (protocol of Example 4); legend paragraph 38 gives panel A as HEK293A/human PD-L1 cells, but the title printed on the sheet reads HEK293A/monkey PDL1

binding result	Binder
binds	B17
binds	B18
binds	B19

Biological target: T5, human PD-L1 (ECD)-his (human, UniProt Q9NZQ7 19-238)
T5 construct: Bought protein; it is not tied to the bought construct by a sentence of its own; also called recombinant human PD-L1(ECD)-his; Cat #:10084-H08H, Sino Biological; not shown: His tag
Assay: SPR (BIAcore 8K), human PD-L1 (ECD)-his coupled to CM5 chip, antibody injected, 1:1 Langmuir model
Method: as §1

T5 sequence (Q9NZQ7 19-238): as the sequence (Q9NZQ7 other isoform, or with tags, fused parts or gaps) above, with T33A, S34A, N62S, Q68R, R82Q, L173F, A185T, I192T, L215H counted along it

Kd	Binder
0.433 nM	B1
0.307 nM	B2
0.518 nM	B3

Biological target: T4, monkey PD-L1 expressed on HEK293A cells
Assay: FACS on HEK293A/monkey PD-L1 cells, serially diluted antibody (protocol of Example 4)
Remark: another data set of the same source

binding result	Binder
binds	B17
binds	B3
binds	B18
binds	B19

Biological target: T2, human PD-L1 expressed on HEK293A cells
Assay: FACS on HEK293A/human PD-L1 cells
Method: as §2

EC50	Binder
1.75 nM	B4
0.572 nM	B5

Biological target: T4, monkey PD-L1 expressed on HEK293A cells
Assay: FACS on HEK293A/monkey PD-L1 cells
Method: as §2

EC50	Binder
1.25 nM	B4
0.499 nM	B5
